Read-outs that look alike come from different tables or passages of the source.
Legend:
[1] = target: T1, biotinylated hBLyS-ECD (human, UniProt Q9Y275 134-285, biotinylated with Biotin-X-X-NHS (molar ratio 7:1), sites not stated); assay: ELISA: biotinylated hBLyS-ECD captured on streptavidin, antibody titrated, HRP secondary antibody
T1 construct: The hBLyS-ECD of Embodiment 1 after biotinylation (Embodiment 2); also called biotinylated immunogen; BLyS protein; not shown: His tag of the pCPC vector

[2] = target: T1, biotinylated hBLyS-ECD; assay: as above; remark: listed apart in the source
[3] = target: T2, extracellular domain of human BLyS protein (hBLyS-ECD), His-tagged, Ala134-Leu285 (human, UniProt Q9Y275 134-285); assay: SPR (Biacore), antibody captured by anti-human Fc, hBLyS-ECD as analyte
T2 construct: Expressed in HEK293 cells and purified on a Ni column; also called immunogen

[4] = target: T3, biotinylated hBLyS-ECD (human, UniProt Q9Y275 134-285, biotinylated with Biotin-X-X-NHS (molar ratio 7:1); sites not stated); assay: ELISA on captured biotinylated hBLyS-ECD; antibody 66.7 nM
T3 construct: also called biotinylated immunogen; biotinylated hBLvS-ECD

[5] = target: T3, biotinylated hBLyS-ECD; assay: ELISA on captured biotinylated hBLyS-ECD; antibody 2.67 nM
[6] = target: T3, biotinylated hBLyS-ECD; assay: ELISA on captured biotinylated hBLyS-ECD; antibody 13.3 nM
[7] = target: T3, biotinylated hBLyS-ECD; assay: ELISA on captured biotinylated hBLyS-ECD; antibody 0.534 nM
[8] = target: T3, biotinylated hBLyS-ECD; assay: ELISA on captured biotinylated hBLyS-ECD; antibody 0 nM (background)
[9] = target: T3, biotinylated hBLyS-ECD; assay: ELISA on captured biotinylated hBLyS-ECD; antibody 0.00427 nM
[10] = target: T2, extracellular domain of human BLyS …; assay: cell-based or functional assay
[11] = target: T3, biotinylated hBLyS-ECD; assay: ELISA on captured biotinylated hBLyS-ECD; antibody 0.107 nM
[12] = target: T3, biotinylated hBLyS-ECD; assay: ELISA on captured biotinylated hBLyS-ECD; antibody 0.0213 nM
[13] = target: T2, extracellular domain of human BLyS …; assay: cell-based or functional assay; remark: listed apart in the source

EC50 (read off the curve) [1]	Kd [3]	koff [3]	kon [3]	OD450 nm [4]	OD450 nm [5]	OD450 nm [6]	OD450 nm [7]	OD450 nm [8]	OD450 nm [9]	OD450 nm [11]	OD450 nm [12]	Binder	further results
~0.1 nM												c8E7D9C7F5 (antibody, human IgG1, V domains shown, also called BLyS chimeric antibody) VH: QVQLQQSGVELARPGASVKLSCKASGYTFTSYGISWVKQRTGQALEWIGEIYPRSGNTYYNEKFKGKATLTADKSSSTAYMELRSLTSEDSAVYFCARSGPITTLVATDYGMDYWGQGTSVTVSS VL: DIVLTQSPASLAVSLGQRATISCRASKSVSTSSYSYMHWYQQKPGQPPKLLIKFASNLESGVPARFSGSGSGTDFTLNIHPVEEEDAATYYCQHSREFPYTFGGGTKLEIK	EC50 (read off the curve) [2]: ~0.1 nM
~0.08 nM												h8E7D9C7F5-1 (antibody, human IgG1, V domains shown, Humanized (VH.1 / Vk.1); also called humanized BLyS antibody) VH: EVQLVQSGAEVKKPGASVKVSCKASGYTFTSYGISWVRQAPGQGLEWMGEIYPRSGNTYYNEKFKGRVTMTTDTSTSTAYMELRSLRSDDTAVYYCARSGPITTLVATDYGMDYWGQGTTVTVSS VL: DIVMTQSPDSLAVSLGERATINCRASKSVSTSSYSYMHWYQQKPGQPPKLLIKFASNLESGVPDRFSGSGSGTDFTLTISSLQAEDVAVYYCQHSREFPYTFGGGTKVEIK	
0.1 to 0.2 nM												h97A3C2H4-9 (antibody, human IgG1, V domains shown, Humanized (VH.1b / Vk.1d); also called humanized BLyS antibody) VH: EVQLVESGGGLVQPGGSLRLSCAASGFTFSTYTMSWVRQAPGKRLEWVAYISYGGGSTSYPDTVKGRFTISRDNAKNSLYLQMNSLRAEDTAVYYCTRHVTVVENSMDYWGQGTTVTVSS VL: DILLTQSPDFQSVTPKEKVTITCRASQSIGTSIHWYQQKTDQSPKLLIKYVSESFSGTPSRFSGSGSGTDFTLTINSLEAEDAATYYCQQTHSWPWTFGGGTKVEIK	
	4.99 nM	0.000159 s⁻¹	32000 M⁻¹ s⁻¹	3.19 OD450 nm	2.94 OD450 nm	3.24 OD450 nm	2.73 OD450 nm	0.0848 OD450 nm	0.143 OD450 nm	1.58 OD450 nm	0.523 OD450 nm	c67A2E1D10 (antibody, V domains shown) VH: EVQLQQSGAELVKPGASVKLSCTASGFNIKNYYMHWVKQRTEEGLEWIGRIDPEDGETKYAPKFQAKATITADTSSNTAYLQLSSLTSEDTAVYFCARKGYYGNYGAWFAYWGQGTLVTVSA VL: DIQMTQSPASLSVSVGETVTITCRASEDLYSNLAWYQQKQGKSPQLLVYAATFLADGVPSRFSGSGSGTQYSLKINSLQSEDFGNYYCQHFWGTPPTFGGGTKLEIK	OD450 nm (as headed), mouse B lymphocyte proliferation; antibody 0 nM [10]: 4060; OD450 nm (as headed), mouse B lymphocyte proliferation; antibody 0.000256 nM [10]: 4720; OD450 nm (as headed), mouse B lymphocyte proliferation; antibody 0.00128 nM [10]: 4810; OD450 nm (as headed), mouse B lymphocyte proliferation; antibody 0.0064 nM [10]: 5170; OD450 nm (as headed), mouse B lymphocyte proliferation; antibody 0.032 nM [10]: 4340; OD450 nm (as headed), mouse B lymphocyte proliferation; antibody 0.16 nM [10]: 3900; OD450 nm (as headed), mouse B lymphocyte proliferation; antibody 0.8 nM [10]: 3970; OD450 nm (as headed), mouse B lymphocyte proliferation; antibody 4 nM [10]: 3500; OD450 nm (as headed), mouse B lymphocyte proliferation; antibody 20 nM [10]: 2610; OD450 nm (as headed), mouse B lymphocyte proliferation; antibody 100 nM [10]: 1100
	0.297 nM	2.98e-05 s⁻¹	100000 M⁻¹ s⁻¹	3.43 OD450 nm	3.4 OD450 nm	3.39 OD450 nm	3.16 OD450 nm	0.105 OD450 nm	0.222 OD450 nm	2.12 OD450 nm	0.747 OD450 nm	c111D10D6G3 (antibody, V domains shown) VH: QVQLQQPGAELVKPGASVKMSCKASGYTFTRHWITWVKQRPGQGLEWIGDIFPGSGSINYNEKFKSEATLTVEKSSSTAYMQLSSLTSEDSAVYYCARGDVDVWGTGTTVTVSS VL: DIQMTQSPSSLSASLGERVSLTCRASQEIRGYLSWLQQKPNGTIKRLIYAASTLDSGVPKRFSATRSGSDFSLTISSLESEDFADYYCLQYASYPFTFGSGTKLEIK	Proportion of B lymphocytes in splenocytes (%), in vivo in mice [13]: 33.2%

Source: patent publication US20210347873A1 (SHANGHAI PHARMAEXPLORER, published 2021)
